{
  "source": "patent US20050106100",
  "key": {"[1]": {"biological_target": "T1, Ac-Csa-PLG˜Hphe-YL-Ambh-Hynic (not fully specified)", "T1 chain": "XPLGXYL"}, "[2]": {"biological_target": "T2, Ac-NGlu-PLG˜Hphe-YL-Ambh-Hynic (not fully specified)", "T2 chain": "XPLGXYL"}, "Ac-NGlu-POG˜Hphe-L-Hynic": {"biological_target": "T3, Ac-NGlu-POG˜Hphe-L-Hynic (not fully specified)", "T3 chain": "XPXGXL"}, "[3]": {"biological_target": "T4, Ac-PLG˜Hphe-OL-Ambh-Hynic", "T4 chain": "PLGXXL"}, "[4]": {"biological_target": "T5, Ac-PLG˜Hphe-YL-Ahxh-Hynic (not fully specified)", "T5 chain": "PLGXYL"}, "Ac-PLG˜Hphe-YL-Hynic": {"biological_target": "T6, Ac-PLG˜Hphe-YL-Hynic", "T6 chain": "PLGXYL"}, "Ac-POG˜Hphe-L-Ambh-Hynic": {"biological_target": "T7, Ac-POG˜Hphe-L-Ambh-Hynic", "T7 chain": "PXGXL"}, "Ac-POG˜Hphe-L-Hynic": {"biological_target": "T8, Ac-POG˜Hphe-L-Hynic", "T8 chain": "PXGXL"}},
  "data": [
    {"protein": "mouse MMP9 (protein) FQTFKGLKWDHHNITYWIQNYSEDLPRDMIDDAFARAFAVWGEVAPLTFTRVYGPEADIVIQFGVAEHGDGYPFDGKDGLLAHAFPPGAGVQGDAHFDDDELWSLGKGVVIPTYYGNSNGAPCHFPFTFEGRSYSACTTDGRNDGTPWCSTTADYDKDGKFGFCPSERLYTEHGNGEGKPCVFPFIFEGRSYSACTTKGRSDGYRWCATTANYDQDKLYGFCPTRVDATVVGGNSAGELCVFPFVFLGKQYSSCTSDGRRDGRLWCATTSNFDTDKKWGFCPDQGYSLFLVAAHEFGHALGLDHSSVPEALMYPLYSYLEGFPLNKDDIDGIQYLYGRGSKPDPRPPATTTTEPQPTAPPTMCPTIPPTAYPTVGPTVGPTGAPSPGPTSSPSPGPTGAPSPGPTAPPTAGSSEASTESLSPADNPCNVDVFDAIAEIQGALHFFKDGWYWKFLNHRGSPLQGPFLTARTWPALPATLDSAFEDPQTKRVFFFSGRQMWVYTGKTVLGPRSLDKLGLGPEVTHVSGLLPRRLGKALLFSKGRVWRFDLKSQKVDPQSVIRVDKEFSGVPWNSHDIFQYQDKAYFCHGKFFWRVSFQNEVNKVDHEVNQVDDVGYVTYDLLQCP", "values": [
      {"measurement": "Kcat/Km", "setting": "[1]", "result": 31000, "unit": "M⁻¹ s⁻¹"},
      {"measurement": "Kcat/Km", "setting": "[2]", "result": "> 100000", "unit": "M⁻¹ s⁻¹"},
      {"measurement": "Kcat/Km", "setting": "Ac-NGlu-POG˜Hphe-L-Hynic", "result": 571, "unit": "M⁻¹ s⁻¹"},
      {"measurement": "Kcat/Km", "setting": "[3]", "result": 48000, "unit": "M⁻¹ s⁻¹"},
      {"measurement": "Kcat/Km", "setting": "[4]", "result": "> 100000", "unit": "M⁻¹ s⁻¹"},
      {"measurement": "Kcat/Km", "setting": "Ac-PLG˜Hphe-YL-Hynic", "result": "> 100000", "unit": "M⁻¹ s⁻¹"},
      {"measurement": "Kcat/Km", "setting": "Ac-POG˜Hphe-L-Ambh-Hynic", "result": 14400, "unit": "M⁻¹ s⁻¹"},
      {"measurement": "Kcat/Km", "setting": "Ac-POG˜Hphe-L-Hynic", "result": 897, "unit": "M⁻¹ s⁻¹"}
    ]}
  ]
}
